B1: SEQ ID NO 74 (peptide)
peptide: CSWPSRCTHQDLC
modifications: linker 1-7-13 via TBMB
B2: SEQ ID NO 78 (peptide)
peptide: CSFPFKCTHQDLC
modifications: linker 1-7-13 via TBMB
B3: SEQ ID NO 76 (peptide)
peptide: CSWLARCTHQDLC
modifications: linker 1-7-13 via TBMB
B4: SEQ ID NO 90 (peptide)
peptide: CSYPIRCTHQDLC
modifications: linker 1-7-13 via TBMB
B5: SEQ ID NO 83 (peptide)
peptide: CRFPFKCTHQDLC
modifications: linker 1-7-13 via TBMB
B6: SEQ ID NO 82 (peptide)
peptide: CSWPYRCTHQDLC
modifications: linker 1-7-13 via TBMB
B7: SEQ ID NO 86 (peptide)
peptide: CSWPFRCTHQDLC
modifications: linker 1-7-13 via TBMB
B8: SEQ ID NO 94 (peptide)
peptide: CSFPYKCTHQDLC
modifications: linker 1-7-13 via TBMB
B9: SEQ ID NO 77 (peptide)
peptide: CSFPYRCTHQDLC
modifications: linker 1-7-13 via TBMB
B10: SEQ ID NO 79 (peptide)
peptide: CSWAARCTHQDLC
modifications: linker 1-7-13 via TBMB
B11: SEQ ID NO 91 (peptide)
peptide: CSWSARCTHQDLC
modifications: linker 1-7-13 via TBMB
B12: SEQ ID NO 87 (peptide)
peptide: CSFPIRCTHQDLC
modifications: linker 1-7-13 via TBMB
B13: SEQ ID NO 93 (peptide)
peptide: CSYPFRCTHQDLC
modifications: linker 1-7-13 via TBMB
B14: SEQ ID NO 80 (peptide)
peptide: CSHPYRCTHQDLC
modifications: linker 1-7-13 via TBMB
B15: SEQ ID NO 96 (peptide)
peptide: CSWHARCTHQDLC
modifications: linker 1-7-13 via TBMB
B16: SEQ ID NO 81 (peptide)
peptide: CSHPFRCTHQDLC
modifications: linker 1-7-13 via TBMB
B17: SEQ ID NO 95 (peptide)
peptide: CSFPWRCTHQDLC
modifications: linker 1-7-13 via TBMB
B18: SEQ ID NO 154 (peptide)
peptide: CTWPARCLHQHMC
modifications: linker 1-7-13 via TBMB (inferred)
B19: SEQ ID NO 150 (peptide)
peptide: CAWPARCLHADMC
modifications: linker 1-7-13 via TBMB (inferred)
B20: SEQ ID NO 155 (peptide)
peptide: CSWPARCVHQDMC
modifications: linker 1-7-13 via TBMB (inferred)
B21: SEQ ID NO 151 (peptide)
peptide: CAWPARCLHQDWC
modifications: linker 1-7-13 via TBMB (inferred)
B22: SEQ ID NO 136 (peptide)
peptide: CTWPARCLHQDLC
modifications: linker 1-7-13 via TBMB (inferred)
B23: SEQ ID NO 135 (peptide)
peptide: CQWPARCMHQELC
modifications: linker 1-7-13 via TBMB (inferred)
B24: SEQ ID NO 159 (peptide)
peptide: CRWPARCTHTDLC
modifications: linker 1-7-13 via TBMB
B25: SEQ ID NO 148 (peptide)
peptide: CTWPARCTHTDMC
modifications: linker 1-7-13 via TBMB (inferred)
B26: SEQ ID NO 142 (peptide)
peptide: CAWPARCTHYDLC
modifications: linker 1-7-13 via TBMB (inferred)
B27: SEQ ID NO 145 (peptide)
peptide: CAWPARCMHDDLC
modifications: linker 1-7-13 via TBMB (inferred)
B28: SEQ ID NO 138 (peptide)
peptide: CVWPARCTHQDLC
modifications: linker 1-7-13 via TBMB (inferred)
B29: SEQ ID NO 156 (peptide)
peptide: CEWPARCLHTDLC
modifications: linker 1-7-13 via TBMB (inferred)
B30: SEQ ID NO 149 (peptide)
peptide: CAWPARCTHTHLC
modifications: linker 1-7-13 via TBMB (inferred)
B31: SEQ ID NO 141 (peptide)
peptide: CPWPARCTHTDLC
modifications: linker 1-7-13 via TBMB (inferred)
B32: SEQ ID NO 140 (peptide)
peptide: CHWPARCMHQDLC
modifications: linker 1-7-13 via TBMB (inferred)
B33: SEQ ID NO 161 (peptide)
peptide: CSWPARCTHSDLC
modifications: linker 1-7-13 via TBMB
B34: SEQ ID NO 143 (peptide)
peptide: CPWPARCTHQNLC
modifications: linker 1-7-13 via TBMB (inferred)
B35: SEQ ID NO 144 (peptide)
peptide: CSWPARCTHTELC
modifications: linker 1-7-13 via TBMB (inferred)
B36: SEQ ID NO 162 (peptide)
peptide: CSWPARCLHDDLC
modifications: linker 1-7-13 via TBMB
B37: SEQ ID NO 147 (peptide)
peptide: CSWPARCIHQDLC
modifications: linker 1-7-13 via TBMB (inferred)
B38: SEQ ID NO 139 (peptide)
peptide: CTWPARCTHADLC
modifications: linker 1-7-13 via TBMB (inferred)
B39: SEQ ID NO 146 (peptide)
peptide: CSWPARCLHTELC
modifications: linker 1-7-13 via TBMB (inferred)
B40: SEQ ID NO 163 (peptide)
peptide: CPWPARCLHTDLC
modifications: linker 1-7-13 via TBMB
B41: SEQ ID NO 160 (peptide)
peptide: CTWPARCTHQAFC
modifications: linker 1-7-13 via TBMB
B42: SEQ ID NO 153 (peptide)
peptide: CAWPARCTHQTMC
modifications: linker 1-7-13 via TBMB (inferred)
B43: SEQ ID NO 131 (peptide)
peptide: CQWPARCMHQDMC
modifications: linker 1-7-13 via TBMB (inferred)
B44: SEQ ID NO 158 (peptide)
peptide: CSWPARCTHAEMC
modifications: linker 1-7-13 via TBMB (inferred)
B45: SEQ ID NO 152 (peptide)
peptide: CDWPARCMHQEFC
modifications: linker 1-7-13 via TBMB (inferred)
B46: SEQ ID NO 157 (peptide)
peptide: CLWPARCLTTELC
modifications: linker 1-7-13 via TBMB (inferred)

Numbered stars: 1 amine (or outer) side, 2 acyl side, 3 side chain; on linkers, the order of the positions; unused ones are H or OH. Bridge positions count the residues as written; N and C are the ends. Ends that are not written are not given here. TBMB = c1c(C[*:1])cc(C[*:3])cc1C[*:2]

The target in one assay is T1, biotinylated human plasma Kallikrein (human, UniProt P03952 20-638, biotinylated).
T1 construct: also called Biotinylated hPK
T1 sequence (P03952 20-638 limits assumed): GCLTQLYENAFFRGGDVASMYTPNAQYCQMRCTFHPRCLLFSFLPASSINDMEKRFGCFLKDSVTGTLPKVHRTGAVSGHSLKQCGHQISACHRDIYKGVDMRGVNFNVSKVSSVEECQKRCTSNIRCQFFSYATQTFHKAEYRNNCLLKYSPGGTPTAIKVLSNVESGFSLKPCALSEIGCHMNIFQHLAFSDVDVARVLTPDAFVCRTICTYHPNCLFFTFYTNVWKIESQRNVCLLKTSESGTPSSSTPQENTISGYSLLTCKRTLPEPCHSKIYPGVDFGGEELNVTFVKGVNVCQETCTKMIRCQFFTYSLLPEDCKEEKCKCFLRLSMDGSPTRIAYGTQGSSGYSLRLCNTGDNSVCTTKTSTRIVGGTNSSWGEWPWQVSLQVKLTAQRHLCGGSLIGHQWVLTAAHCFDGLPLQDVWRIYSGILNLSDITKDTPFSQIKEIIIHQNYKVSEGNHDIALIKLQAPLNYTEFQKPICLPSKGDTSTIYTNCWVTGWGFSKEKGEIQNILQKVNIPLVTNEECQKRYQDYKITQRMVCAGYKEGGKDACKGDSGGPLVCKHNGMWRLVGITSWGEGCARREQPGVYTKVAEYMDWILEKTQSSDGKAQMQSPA
Nature of the assay: phage binding assay. The method, then: (§1) Library transformant colonies, or selection output colonies, were picked and grown as individual cultures in 2TY broth containing selective antibiotic. The picked colonies were DNA-sequenced using a QIAgen PyroMark Q96 DNA sequencer to reveal the amino-acid substitution present in each clone, and were assayed for human plasma Kallikrein binding as follows. The phage-containing supernatant was harvested from the culture and phage were cyclised with tris bromomethyl benzene(TBMB) based on the methods of Heinis et al (Nature Chemical Biology vol. 5 pp 502-507 (2009)). The purified phage from this process were assayed for binding to biotinylated human plasma Kallikrein using a homogeneous plate-based binding assay; assay read-out measured on a BMG Labtech Pherastar FS plate reader. The quantitative binding data from duplicate assay samples was averaged (mean) and expressed as signal:background. […] The assay data was correlated with the peptide sequences.
A library was constructed where positions 1, 6, 7, 8, 9 &10 of 06-34-03 were fixed and positions 2, 3, 4 & 5 were randomised (see 'Randomisation of peptide domains—Library construction' in Methods above). Selections against human plasma Kallikrein were performed at a variety of stringencies (see 'Phage selections' in Methods above). All output sequences were identified and analysed for target binding (see 'Randomisation of peptide domains—Assay of binding of individual clones' in Methods above). Table 17 lists each unique sequence, its relative abundance in the selection output (frequency), and a rank number according to target binding strength.
B1: the “Rank (by Kallikrein binding)” value came out at 2.
In the case of B2, the “Rank (by Kallikrein binding)” value was found to be 6.
On to B3, for which the “Rank (by Kallikrein binding)” value was determined as 4.
The same measure, in the same setting: in the case of B4 it was 18.
Take B5: the “Rank (by Kallikrein binding)” value is 11.
Still for that read-out and setting: as for B6, the figure is 10.
Still for that read-out and setting: in the case of B7 it was 14.
B8: the “Rank (by Kallikrein binding)” value turned out to be 22.
Still for that read-out and setting: as for B9, the figure is 5.
Regarding B10, the “Rank (by Kallikrein binding)” value came to 7.
Take B11: the “Rank (by Kallikrein binding)” value worked out at 19.
With B12, the “Rank (by Kallikrein binding)” value is 15.
As to B13, the “Rank (by Kallikrein binding)” value was determined as 21.
In the case of B14, the “Rank (by Kallikrein binding)” value was 8.
Regarding B15, the “Rank (by Kallikrein binding)” value was 24.
On the same count and under the same terms, in the case of B16 it was 9; in that of B17, 23.

In another assay the target is T1, biotinylated human plasma Kallikrein. Kind of assay: phage binding assay, signal:background. The method, then:
as §1
Selections against human plasma Kallikrein were performed with this library in order to study the non-WPAR (SEQ ID NO: 18) determinants of Kallikrein binding, and to isolate the optimal WPAR (SEQ ID NO: 18)-containing peptide sequence.
The molecule B18 returned a Binding assay signal of 61.
B19: the Binding assay signal turned out to be 66.
B20 yielded a Binding assay signal of 61.
With B21, the Binding assay signal came to 63.
With B22, the Binding assay signal was determined as 73.
On the same count and under the same terms, as for B23, the figure is 73.
B24 showed a Binding assay signal of 59.
B25 had a Binding assay signal of 67.
Consider B26, for which the Binding assay signal was 70.
Take B27: the Binding assay signal amounted to 69.
In turn, B28 displayed a Binding assay signal of 71.
The molecule B29 gave a Binding assay signal of 60.
Molecule B30 yielded a Binding assay signal of 66.
B31: the Binding assay signal stood at 70.
B32: the Binding assay signal was 71.
The molecule B33 came in with a Binding assay signal of 59.
For B34, the Binding assay signal was found to be 69.
Still for that read-out and setting: in the case of B35 it was 69; in that of B36, 59; in that of B37, 68.
B38 showed a Binding assay signal of 71.
With B39, the Binding assay signal amounted to 68.
The molecule B40 registered a Binding assay signal of 58.
For the molecule B41, the Binding assay signal worked out at 59.
Turning to B42, the Binding assay signal was 61.
For B43, the Binding assay signal was found to be 75.
Molecule B44 displayed a Binding assay signal of 59.
Molecule B45 yielded a Binding assay signal of 63.
With B46, the Binding assay signal was found to be 59.

(Values after patent publication US10800813 (Bicycle, dated 2020).)
